Legend:
Format in all cases: cell-based
[1] = molecular target: T1, CFTR (Homo sapiens, UniProt P13569); test: CFTR activity in Xenopus oocytes co-expressing CFTR and β2 adrenergic receptor; conditions: after 10 μM isoproterenol
T1 construct: expressed in transfected cells; host or cells: Xenopus laevis oocytes
Description: Oocyte studies. Xenopus laevis oocytes were harvested and injected as described (Donaldson, et al., J. Biol. Chem. 277:8338 (2002)). Defolliculated healthy stage V-VI oocytes were injected with 0.3 ng of cRNA of each ENaC subunit. Injected oocytes were kept in modified Barth's saline (in mM: 88 NaCl, 1 KCl, 2.4 NaHCO3, 0.3 Ca(NO3)2, 0.41 CaCl2, 0.82 MgSO4, and 15 HEPES, adjusted to pH 7.35 with Tris). Oocytes were studied 24 hr after injection using the two electrode voltage clamp technique as previously described (Donaldson, et al., J. Biol. Chem. 277:8338 (2002)). Oocytes were clamped at a holding potential of […]. The change in amiloride-sensitive whole cell current as an indicator of ENaC activity was determined by subtracting the corresponding current value measured in the presence of 10 μM amiloride from that measured before the application of amiloride.
In both cases, we co-expressed CFTR with the β2 adrenergic receptor (β2AR) which can be stimulated with isoproterenol to raise cAMP and stimulate CFTR (Uezono et al., Receptors Channels 1:233 (1993)).

[2] = test system: serine proteases; test: Endogenous protease activity (BGAR-MCA cleavage) on mucosal surfaces of human bronchial epithelial cultures
Description: For cell-free assays, reactions were carried out in 50 μl Ringer in a 96 well plate format with 100 μM BGAR-MCA. To measure endogenous protease activity in human bronchial epithelial cultures, 30 μl Ringer with 100 μM BGAR-MCA were placed directly onto the mucosal surfaces of human bronchial epithelial cultures grown on 12 mm T-clear inserts and the cultures were assayed in 12 well plates.

[3] = molecular target: T2, αENaC (Rattus norvegicus, UniProt P37089); test: Surface biotinylation of αENaC in Xenopus oocytes; conditions: coexpression with SPLUNC1 in oocytes
T2 construct: expressed in transfected cells; host or cells: Xenopus oocytes
T2 sequence (P37089 1-698): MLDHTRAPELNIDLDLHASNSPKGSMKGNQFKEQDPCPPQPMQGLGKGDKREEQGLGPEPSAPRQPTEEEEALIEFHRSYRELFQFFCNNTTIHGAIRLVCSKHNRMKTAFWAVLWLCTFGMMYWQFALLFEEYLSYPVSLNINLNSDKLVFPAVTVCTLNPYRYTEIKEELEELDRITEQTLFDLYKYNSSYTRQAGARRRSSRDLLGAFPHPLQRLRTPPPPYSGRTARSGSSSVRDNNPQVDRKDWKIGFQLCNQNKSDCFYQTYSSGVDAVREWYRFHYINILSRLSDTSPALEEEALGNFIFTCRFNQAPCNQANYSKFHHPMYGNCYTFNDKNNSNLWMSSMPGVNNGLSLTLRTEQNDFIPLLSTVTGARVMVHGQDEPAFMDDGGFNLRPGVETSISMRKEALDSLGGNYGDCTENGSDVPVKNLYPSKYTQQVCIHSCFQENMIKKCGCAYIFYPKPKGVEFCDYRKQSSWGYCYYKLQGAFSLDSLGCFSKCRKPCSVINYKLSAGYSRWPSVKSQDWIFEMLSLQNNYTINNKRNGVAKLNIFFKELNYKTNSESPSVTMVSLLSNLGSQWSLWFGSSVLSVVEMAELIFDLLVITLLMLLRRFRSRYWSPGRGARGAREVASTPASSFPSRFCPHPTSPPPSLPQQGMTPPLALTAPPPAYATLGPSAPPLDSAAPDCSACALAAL
T2 sequence (P37090 1-638 partner): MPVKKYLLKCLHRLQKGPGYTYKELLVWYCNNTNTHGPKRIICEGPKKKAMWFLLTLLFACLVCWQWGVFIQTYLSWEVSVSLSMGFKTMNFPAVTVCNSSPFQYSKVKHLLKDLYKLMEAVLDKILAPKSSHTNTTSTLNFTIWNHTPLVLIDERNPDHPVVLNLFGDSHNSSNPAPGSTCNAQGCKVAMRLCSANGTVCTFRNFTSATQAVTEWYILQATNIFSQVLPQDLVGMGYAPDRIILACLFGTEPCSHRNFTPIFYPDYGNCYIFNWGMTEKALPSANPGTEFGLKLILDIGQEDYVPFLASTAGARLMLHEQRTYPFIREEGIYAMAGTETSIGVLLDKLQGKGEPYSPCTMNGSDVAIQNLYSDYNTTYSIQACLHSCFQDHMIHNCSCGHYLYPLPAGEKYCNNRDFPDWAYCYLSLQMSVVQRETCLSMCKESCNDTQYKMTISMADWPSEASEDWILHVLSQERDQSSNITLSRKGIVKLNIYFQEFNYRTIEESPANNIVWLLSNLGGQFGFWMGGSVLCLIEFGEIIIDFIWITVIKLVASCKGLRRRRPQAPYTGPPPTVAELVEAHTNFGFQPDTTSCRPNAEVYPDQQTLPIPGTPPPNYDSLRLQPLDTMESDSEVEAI
T2 sequence (P37091 1-650 partner): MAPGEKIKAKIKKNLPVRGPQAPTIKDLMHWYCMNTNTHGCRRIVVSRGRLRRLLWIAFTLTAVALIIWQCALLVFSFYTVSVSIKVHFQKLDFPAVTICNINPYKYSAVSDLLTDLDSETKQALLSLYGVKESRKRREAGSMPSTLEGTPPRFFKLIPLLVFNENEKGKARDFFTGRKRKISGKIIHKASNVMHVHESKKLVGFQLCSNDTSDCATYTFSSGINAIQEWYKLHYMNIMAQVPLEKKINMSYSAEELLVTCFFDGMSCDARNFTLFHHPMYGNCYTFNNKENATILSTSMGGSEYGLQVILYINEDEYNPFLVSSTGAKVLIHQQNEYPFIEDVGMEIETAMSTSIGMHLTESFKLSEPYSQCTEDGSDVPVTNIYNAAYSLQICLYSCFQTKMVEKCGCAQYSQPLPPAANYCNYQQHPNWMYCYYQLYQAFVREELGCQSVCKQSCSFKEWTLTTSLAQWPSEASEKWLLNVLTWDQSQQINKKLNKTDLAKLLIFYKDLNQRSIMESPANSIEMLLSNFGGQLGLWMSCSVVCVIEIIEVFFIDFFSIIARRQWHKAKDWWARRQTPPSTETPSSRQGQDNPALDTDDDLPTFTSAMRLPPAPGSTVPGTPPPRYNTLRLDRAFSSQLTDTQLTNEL
Description: The effect of SPLUNC1 on the number of ENaC channels in the plasma membrane was tested by expressing SPLUNC1 and αENaC in Xenopus oocytes. After surface biotinylation of αENaC, total lysate was prepared and lysate from 3-4 eggs was separated on a 10% gel.

T1 sequence (P13569 whole entry, species assumed): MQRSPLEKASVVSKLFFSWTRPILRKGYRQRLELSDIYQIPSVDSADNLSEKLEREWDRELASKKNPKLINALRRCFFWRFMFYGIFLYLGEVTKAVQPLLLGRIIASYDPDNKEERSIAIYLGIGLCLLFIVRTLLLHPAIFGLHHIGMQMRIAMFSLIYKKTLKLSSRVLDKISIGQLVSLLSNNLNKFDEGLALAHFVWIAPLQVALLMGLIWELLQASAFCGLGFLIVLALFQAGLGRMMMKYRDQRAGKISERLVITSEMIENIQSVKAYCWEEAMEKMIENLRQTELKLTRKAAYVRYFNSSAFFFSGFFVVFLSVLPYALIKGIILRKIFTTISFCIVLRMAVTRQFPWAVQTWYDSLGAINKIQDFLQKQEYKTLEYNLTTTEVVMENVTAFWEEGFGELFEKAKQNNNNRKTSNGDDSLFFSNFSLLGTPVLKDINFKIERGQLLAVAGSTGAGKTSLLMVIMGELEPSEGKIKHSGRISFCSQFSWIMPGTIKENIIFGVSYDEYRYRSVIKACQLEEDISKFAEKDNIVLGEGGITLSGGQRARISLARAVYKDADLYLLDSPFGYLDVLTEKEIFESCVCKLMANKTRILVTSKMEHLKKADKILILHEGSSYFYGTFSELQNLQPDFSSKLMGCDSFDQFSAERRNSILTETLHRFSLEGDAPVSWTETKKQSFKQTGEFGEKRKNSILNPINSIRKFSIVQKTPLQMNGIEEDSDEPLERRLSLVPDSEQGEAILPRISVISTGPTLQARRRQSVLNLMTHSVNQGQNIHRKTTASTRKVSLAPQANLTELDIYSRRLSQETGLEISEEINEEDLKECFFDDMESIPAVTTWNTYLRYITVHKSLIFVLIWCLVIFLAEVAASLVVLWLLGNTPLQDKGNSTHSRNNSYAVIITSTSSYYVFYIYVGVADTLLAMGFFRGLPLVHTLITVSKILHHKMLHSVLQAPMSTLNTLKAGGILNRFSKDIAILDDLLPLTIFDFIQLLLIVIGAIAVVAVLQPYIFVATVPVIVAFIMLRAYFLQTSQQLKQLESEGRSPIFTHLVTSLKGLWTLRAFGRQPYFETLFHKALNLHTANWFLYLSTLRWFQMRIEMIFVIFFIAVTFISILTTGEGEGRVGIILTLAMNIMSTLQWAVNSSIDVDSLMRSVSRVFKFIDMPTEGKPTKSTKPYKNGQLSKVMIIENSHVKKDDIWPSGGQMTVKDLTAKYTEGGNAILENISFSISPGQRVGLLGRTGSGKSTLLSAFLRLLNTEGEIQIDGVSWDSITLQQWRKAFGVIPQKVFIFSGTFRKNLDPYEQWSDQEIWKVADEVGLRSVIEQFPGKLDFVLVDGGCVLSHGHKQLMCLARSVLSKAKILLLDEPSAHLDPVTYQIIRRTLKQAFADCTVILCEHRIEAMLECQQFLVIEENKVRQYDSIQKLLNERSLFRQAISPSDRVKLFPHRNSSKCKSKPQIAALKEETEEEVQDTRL

B1: SPLUNC1: human SPLUNC1, 256 amino acid secreted PLUNC protein (SEQ ID NO:1); rSPLUNC1 = V5/6His-tagged protein purified from HEK293 media (protein, listed as Homo sapiens)
chain: MFQTGGLIVFYGLLAQTMAQFGGLPVPLDQTLPLNVNPALPLSPTGLAGSLTNALSNGLLSGGLLGILENLPLLDILKPGGGTSGGLLGGLLGKVTSVIPGLNNIIDIKVTDPQLLELGLVQSPDGHRLYVTIPLGIKLQVNTPLVGASLLRLAVKLDITAEILAVRDKQERIHLVLGDCTHSPGSLQISLLDGLGPLPIQGLLDSLTGILNKVLPELVQGNVCPLVNEVLRGLDITLVHDIVNMLIHGLQFVIKV
modifications: V5/6His tag
notes: rSPLUNC1 = V5/6His-tagged protein purified from HEK293 media
- effect on CFTR activity ([1]; 5 ng/ml rSPLUNC1 exposure): no inhibitory effect
- effect on CFTR activity ([1]; injection of SPLUNC1 cRNA): no inhibitory effect
- spontaneous BGAR-MCA cleavage on mucosal surfaces [2]: no significant affect
- plasma membrane ENaC (surface biotinylation) [3]: decreased
